Assay results published in publication PMC10425836, “Cryo‐EM structure of antibacterial efflux transporter QacA from Staphylococcus aureus reveals a novel extracellular loop with allosteric role” (The EMBO Journal, 2023).

Tests used:
five unique clones = assay: flow cytometry on cells; yeast cells displaying individual ICab clones with QacA_(D411N)-GFP; percent population shift
the identified ICabs = assay: flow cytometry on cells; yeast cells displaying the ICab incubated with different concentrations of purified QacA_(D411N)-GFP; population shift-based titration; one site-specific binding fit; apparent Kd
[1] = target: ICab B7 displayed on the yeast cell surface; assay: as above
[2] = target: ICab A4 displayed on the yeast cell surface; assay: as above
QacAWT tagged with GFP = target: T1, QacAWT tagged with GFP (Staphylococcus aureus, UniProt P0A0J9); assay: immunostaining of cells or tissue; NHS-Rhodamine labelled ICabs (0.03 mg/ml) added to E. coli spheroplasts expressing GFP-tagged QacA, room temperature 30 min, washed, confocal microscopy; conditions: one partner purified
T1 construct: QacA wild type, 14 transmembrane helix MFS (DHA2) antibacterial efflux antiporter of Staphylococcus aureus; codon-optimized synthetic gene in pBAD-His8; the methods of the spheroplast imaging name only QacA_(D411N)-GFP; also called QacA-GFP; source: on E. coli spheroplasts; not shown: GFP, C-terminal, kept

B1: QacA_(D411N)-GFP (natural protein)
chain: MISFFTKTTDMMTSKKRWTALVVLAVSLFVVTMDMTILIMALPELVRELEPSGTQQLWIVDIYSLVLAGFIIPLSAFADKWGRKKALLTGFALFGLVSLAIFFAESAEFVIAIRFLLGIAGALIMPTTLSMIRVIFENPKERATALAVWSIASSIGAVFGPIIGGALLEQFSWHSAFLINVPFAIIAVVAGLFLLPESKLSKEKSHSWDIPSTILSIAGMIGLVWSIKEFSKEGLADIIPWVVIVLAITMIVIFVKRNLSSSDPMLDVRLFKKRSFSAGTIAAFMTMFAMASVLLLASQWLQVVEELSPFKAGLYLLPMAIGDMVFAPIAPGLAARFGPKIVLPSGIGIAAIGMFIMYFFGHPLSYSTMALALILVGAGMASLAVASALIMLETPTSKAGNAAAVEESMYNLGNVFGVAVLGSLSSMLYRVFLDISSFSSKGIVGDLAHVAEESVVGAVEVAKATGIKQLANEAVTSFNDAFVATALVGGIIMIIISIVVYLLIPKSLDITKQK
population shift (five unique clones): 65 to 97%
Kd (the identified ICabs): 59 nM
Kd [1]: 100 nM
Kd [2]: 65 nM

B2: ICab A4, purified (VHH)
VHH: QVQLQESGGGSVQTGGSLRLSCAASGYRYSDNCVGWFRQAPGREREAVATYNSGSSTWYADSVKGRFTISQDSAKSTVYLQMNNLKPEDTAMYYCAGRNRLGSYCYMTGDFAYWGQGTQVTVSS
notes: single-domain Indian camelid antibody A4 from a camel immunised with QacA; source: E. coli SHuffle T7, purified (Ni-NTA, SEC)
binding result (QacAWT tagged with GFP): binds

B3: ICab B7, purified (VHH)
VHH: QVQLQESGGGSVQAGGSLRLSCAASGYTNSRKCMGWFRQIPGKEREGVAAIYGFGRGLILYADSVKGRFTISQDNAKNTVYLQMNSLKPEDTAMYYCAADSPGSCLSRSGYNYWGQGTQVTVSS
notes: single-domain Indian camelid antibody B7 from a camel immunised with QacA; source: E. coli SHuffle T7, purified (Ni-NTA, SEC)
binding result (QacAWT tagged with GFP): binds
